Data as given in doi:10.1101/2021.09.06.459192 (bioRxiv, 2021).
Values belong to the binder of their own block, whether it stands above or below them.

Target: Rrp5 full length, recombinant (Rrp5_FL) (S. cerevisiae, UniProt Q05022 1-1729)
Assay: pull-down

Sequence of Rrp5 full length, recombinant (Rrp5_FL) (Q05022 whole entry): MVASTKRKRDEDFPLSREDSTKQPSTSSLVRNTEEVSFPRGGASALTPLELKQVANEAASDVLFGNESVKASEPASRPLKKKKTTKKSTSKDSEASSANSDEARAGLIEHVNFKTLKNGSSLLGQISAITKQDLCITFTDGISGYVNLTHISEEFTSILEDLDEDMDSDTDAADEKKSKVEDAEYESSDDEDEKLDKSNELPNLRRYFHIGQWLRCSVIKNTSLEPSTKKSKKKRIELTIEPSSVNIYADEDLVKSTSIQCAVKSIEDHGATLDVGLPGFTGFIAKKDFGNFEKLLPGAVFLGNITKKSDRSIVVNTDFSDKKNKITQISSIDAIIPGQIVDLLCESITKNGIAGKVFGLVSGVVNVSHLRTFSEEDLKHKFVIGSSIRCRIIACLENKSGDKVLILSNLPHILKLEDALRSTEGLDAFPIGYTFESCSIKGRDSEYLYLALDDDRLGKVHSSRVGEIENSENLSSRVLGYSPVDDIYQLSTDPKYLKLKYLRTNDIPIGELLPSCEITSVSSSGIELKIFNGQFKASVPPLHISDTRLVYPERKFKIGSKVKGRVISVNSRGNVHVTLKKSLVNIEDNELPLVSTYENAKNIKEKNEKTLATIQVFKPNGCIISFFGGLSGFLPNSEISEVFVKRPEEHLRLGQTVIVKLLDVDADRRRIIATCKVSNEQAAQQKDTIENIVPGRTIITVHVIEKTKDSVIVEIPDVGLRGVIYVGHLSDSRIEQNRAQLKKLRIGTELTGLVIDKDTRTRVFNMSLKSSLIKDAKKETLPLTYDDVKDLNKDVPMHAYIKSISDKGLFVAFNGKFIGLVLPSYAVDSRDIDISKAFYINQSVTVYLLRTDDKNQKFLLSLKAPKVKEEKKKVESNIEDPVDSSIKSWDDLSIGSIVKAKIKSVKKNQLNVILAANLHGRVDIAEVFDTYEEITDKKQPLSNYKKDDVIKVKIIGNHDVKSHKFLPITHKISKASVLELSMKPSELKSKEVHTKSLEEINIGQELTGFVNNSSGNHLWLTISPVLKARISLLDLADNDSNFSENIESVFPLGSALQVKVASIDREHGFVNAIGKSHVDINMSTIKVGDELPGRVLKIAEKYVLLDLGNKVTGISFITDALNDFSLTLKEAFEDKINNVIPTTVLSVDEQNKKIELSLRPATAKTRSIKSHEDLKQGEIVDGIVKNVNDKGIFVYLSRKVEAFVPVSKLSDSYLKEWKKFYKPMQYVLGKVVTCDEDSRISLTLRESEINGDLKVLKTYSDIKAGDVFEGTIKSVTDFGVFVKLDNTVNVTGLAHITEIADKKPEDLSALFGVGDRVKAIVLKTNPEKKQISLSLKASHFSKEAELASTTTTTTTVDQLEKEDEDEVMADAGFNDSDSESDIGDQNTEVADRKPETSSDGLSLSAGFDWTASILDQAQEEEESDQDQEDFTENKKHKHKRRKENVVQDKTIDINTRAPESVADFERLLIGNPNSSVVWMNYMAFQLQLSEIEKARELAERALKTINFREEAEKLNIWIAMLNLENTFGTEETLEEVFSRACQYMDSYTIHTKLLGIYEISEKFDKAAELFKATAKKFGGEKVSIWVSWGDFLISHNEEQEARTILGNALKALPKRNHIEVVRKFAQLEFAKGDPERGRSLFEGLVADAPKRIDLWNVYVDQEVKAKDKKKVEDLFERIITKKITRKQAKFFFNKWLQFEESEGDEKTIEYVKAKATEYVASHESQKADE

binding result: binds
B1: MBP-Krr1, recombinant (natural protein, S. cerevisiae, UniProt P25586 1-316, looked up)
chain: MVSTHNRDKPWDTDDIDKWKIEEFKEEDNASGQPFAEESSFMTLFPKYRESYLKTIWNDVTRALDKHNIACVLDLVEGSMTVKTTRKTYDPAIILKARDLIKLLARSVPFPQAVKILQDDMACDVIKIGNFVTNKERFVKRRQRLVGPNGNTLKALELLTKCYILVQGNTVSAMGPFKGLKEVRRVVEDCMKNIHPIYHIKELMIKRELAKRPELANEDWSRFLPMFKKRNVARKKPKKIRNVEKKVYTPFPPAQLPRKVDLEIESGEYFLSKREKQMKKLNEQKEKQMEREIERQEERAKDFIAPEEEAYKPNQN

binding result: binds
B2: MBP-Rrp36, recombinant (natural protein, S. cerevisiae, UniProt Q12481 1-300, looked up)
chain: MSYYFKNLKPDLNSDVEEDDGNLLESIMANKSKREIDEQESSDDELKTLSFGSLKKAETVIDEEDFKDTKPVHKKPITTTYREESFDEDEDSEDQSDEDAGFFEEDSEDETHHGQKVPKKKSKHAPVEQSSKKRVPRVRNIPGLEIPRNKRSNLYQDIRFDKSTGKALDSSIIRKRYQFLDEYREKEIDELQKLLQERKFLSKIDQGEREEMEQRLKSMKSRLQSMKNKDLEREILKEYENDMNKNNNTRYHLKKSEKRKVVQKWKFDHMKAKQREKVMERKRKKRLGKEFKQFEFHNRR
